The target in the assay is BTN3A expressed at the cell surface (human), O00481. Description: cell-based or functional assay.
Chain of BTN3A expressed at the cell surface (human), O00481 (O00481 30-513): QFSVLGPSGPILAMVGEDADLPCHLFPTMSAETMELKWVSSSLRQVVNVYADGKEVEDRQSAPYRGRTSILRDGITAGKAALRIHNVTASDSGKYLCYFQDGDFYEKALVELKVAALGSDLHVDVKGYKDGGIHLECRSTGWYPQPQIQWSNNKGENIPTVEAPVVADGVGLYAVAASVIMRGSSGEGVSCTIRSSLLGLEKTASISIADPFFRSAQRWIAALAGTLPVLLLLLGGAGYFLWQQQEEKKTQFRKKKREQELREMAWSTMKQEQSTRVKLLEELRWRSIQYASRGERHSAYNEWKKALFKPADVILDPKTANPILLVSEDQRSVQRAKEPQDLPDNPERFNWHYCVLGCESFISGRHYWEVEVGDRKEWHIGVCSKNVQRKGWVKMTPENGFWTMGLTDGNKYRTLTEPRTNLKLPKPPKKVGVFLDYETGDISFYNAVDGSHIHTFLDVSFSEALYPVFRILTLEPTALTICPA

B1: bsAb038 (bispecific antibody, not shown: small tags and cut ends)
heavy (part 1 of 2): QVQLVQSGAEVKKPGASVKLSCKASGYIFTRYYMYWVKQRPGQGLEWIGEINPNNGGTKFNEKFKNRATLTVDKSISTAYMELSRLRSDDTAVYYCSREDDYDGTPFAMDYWGQGTLVTVSS
heavy (part 2 of 2): GGGGSGGGGSGGGGSGGGGSEIVLTQSPATLSLSPGERATLSCRASKGVSTSGYSYLHWYQQKPGQAPRLLIYLASYLESGVPARFSGSGSGTDFTLTISSLEPEDFAVYYCQHSRDLPLTFGGGTKVEIKGGGGSGGGGSGGGGSGGGGSQVQLVQSGVEVKKPGASVKVSCKASGYTFTNYYMYWVRQAPGQGLEWMGGINPSNGGTNFNEKFKNRVTLTTDSSTTTAYMELKSLQFDDTAVYYCARRDYRFDMGFDYWGQGTTVTVSS
heavy: B1 heavy (part 1 of 2)
light: not shown
The molecule B1 gave a Jurkat-Vy9Vo2 TCR MOP activation at 0.5 nM (fold-change to medium) of 8.5 and a Jurkat-Vy9Vo2 TCR MOP activation at 5 nM (fold-change to medium) of 7.2.

B2: bsAb047 (bispecific antibody, not shown: small tags and cut ends)
heavy 1: EIVLTQSPATLSLSPGERATLSCRASKGVSTSGYSYLHWYQQKPGQAPRLLIYLASYLESGVPARFSGSGSGTDFTLTISSLEPEDFAVYYCQHSRDLPLTFGGGTKVEIKGGGGSGGGGSGGGGSGGGGSQVQLVQSGVEVKKPGASVKVSCKASGYTFTNYYMYWVRQAPGQGLEWMGGINPSNGGTNFNEKFKNRVTLTTDSSTTTAYMELKSLQFDDTAVYYCARRDYRFDMGFDYWGQGTTVTVSSGGGGSGGGGSGGGGSGGGGSQVQLVQSGAEVKKPGASVKLSCKASGYIFTRYYMYWVKQRPGQGLEWIGEINPNNGGTKFNEKFKNRATLTVDKSISTAYMELSRLRSDDTAVYYCSREDDYDGTPFAMDYWGQGTLVTVSS
heavy 2: B1 heavy (part 1 of 2)
light: not shown
The molecule B2 displayed a Jurkat-Vy9Vo2 TCR MOP activation at 0.5 nM (fold-change to medium) of 4 and a Jurkat-Vy9Vo2 TCR MOP activation at 5 nM (fold-change to medium) of 5.8.

B3: bsAb052 (bispecific antibody, not shown: small tags and cut ends; a dimerising Fc or GST)
heavy (part 1 of 2): B1 heavy (part 1 of 2)
heavy (part 2 of 2): GGGGSGGGGSGGGGSGGGGSQVQLVQSGVEVKKPGASVKVSCKASGYTFTNYYMYWVRQAPGQGLEWMGGINPSNGGTNFNEKFKNRVTLTTDSSTTTAYMELKSLQFDDTAVYYCARRDYRFDMGFDYWGQGTTVTVSSGGGGSGGGGSGGGGSGGGGSEIVLTQSPATLSLSPGERATLSCRASKGVSTSGYSYLHWYQQKPGQAPRLLIYLASYLESGVPARFSGSGSGTDFTLTISSLEPEDFAVYYCQHSRDLPLTFGGGTKVEIK
heavy: B3 heavy (part 2 of 2)
light: not shown
For B3, the Jurkat-Vy9Vo2 TCR MOP activation at 0.5 nM (fold-change to medium) was found to be 4.2 and the Jurkat-Vy9Vo2 TCR MOP activation at 5 nM (fold-change to medium) amounted to 4.5.

B4: bsAb049 (bispecific antibody, not shown: small tags and cut ends)
heavy 1: QVQLVQSGVEVKKPGASVKVSCKASGYTFTNYYMYWVRQAPGQGLEWMGGINPSNGGTNFNEKFKNRVTLTTDSSTTTAYMELKSLQFDDTAVYYCARRDYRFDMGFDYWGQGTTVTVSSGGGGSGGGGSGGGGSGGGGSEIVLTQSPATLSLSPGERATLSCRASKGVSTSGYSYLHWYQQKPGQAPRLLIYLASYLESGVPARFSGSGSGTDFTLTISSLEPEDFAVYYCQHSRDLPLTFGGGTKVEIKGGGGSGGGGSGGGGSGGGGSQVQLVQSGAEVKKPGASVKLSCKASGYIFTRYYMYWVKQRPGQGLEWIGEINPNNGGTKFNEKFKNRATLTVDKSISTAYMELSRLRSDDTAVYYCSREDDYDGTPFAMDYWGQGTLVTVSS
heavy 2: B1 heavy (part 1 of 2)
light: not shown
As to B4, the Jurkat-Vy9Vo2 TCR MOP activation at 0.5 nM (fold-change to medium) worked out at 5.9 and the Jurkat-Vy9Vo2 TCR MOP activation at 5 nM (fold-change to medium) stood at 6.2.

B5: bsAb056 (bispecific antibody, not shown: a dimerising Fc or GST; small tags and cut ends)
heavy 1: B3 heavy (part 2 of 2)
heavy 2: B1 heavy (part 1 of 2)
light: not shown
B5 returned a Jurkat-Vy9Vo2 TCR MOP activation at 0.5 nM (fold-change to medium) of 7 and a Jurkat-Vy9Vo2 TCR MOP activation at 5 nM (fold-change to medium) of 10.

B6: bsAb068 (bispecific antibody)
heavy: QVQLVQSGVEVKKPGASVKVSCKASGYTFTNYYMYWVRQAPGQGLEWMGGINPSNGGTNFNEKFKNRVTLTTDSSTTTAYMELKSLQFDDTAVYYCARRDYRFDMGFDYWGQGTTVTVSSASTKGPSVFPLAPSSKSTSGGTAALGCLVKDYFPEPVTVSWNSGALTSGVHTFPAVLQSSGLYSLSSVVTVPSSSLGTQTYICNVNHKPSNTKVDKRVEPKSCDKTHTCPPCPAPEFEGGPSVFLFPPKPKDTLMISRTPEVTCVVVDVSHEDPEVKFNWYVDGVEVHNAKTKPREEQYNSTYRVVSVLTVLHQDWLNGKEYKCKVSNKALPASIEKTISKAKGQPREPQVYTLPPSREEMTKNQVSLTCLVKGFYPSDIAVEWESNGQPENNYKTTPPVLDSDGSFFLYSKLTVDKSRWQQGNVFSCSVMHEALHNHYTQKSLSLSPG
light: not shown
In turn, B6 had a Jurkat-Vy9Vo2 TCR MOP activation at 0.5 nM (fold-change to medium) of 1.4 and a Jurkat-Vy9Vo2 TCR MOP activation at 5 nM (fold-change to medium) of 1.6.

B7: bsAb061 (bispecific antibody)
heavy: QVQLVQSGAEVKKPGASVKLSCKASGYIFTRYYMYWVKQRPGQGLEWIGEINPNNGGTKFNEKFKNRATLTVDKSISTAYMELSRLRSDDTAVYYCSREDDYDGTPFAMDYWGQGTLVTVSSASTKGPSVFPLAPSSKSTSGGTAALGCLVKDYFPEPVTVSWNSGALTSGVHTFPAVLQSSGLYSLSSVVTVPSSSLGTQTYICNVNHKPSNTKVDKRVEPKSCDKTHTCPPCPAPEFEGGPSVFLFPPKPKDTLMISRTPEVTCVVVDVSHEDPEVKFNWYVDGVEVHNAKTKPREEQYNSTYRVVSVLTVLHQDWLNGKEYKCKVSNKALPASIEKTISKAKGQPREPQVYTLPPSREEMTKNQVSLTCLVKGFYPSDIAVEWESNGQPENNYKTTPPVLDSDGSFFLYSKLTVDKSRWQQGNVFSCSVMHEALHNHYTQKSLSLSPG
light: not shown
For B7, the Jurkat-Vy9Vo2 TCR MOP activation at 0.5 nM (fold-change to medium) worked out at 3.7 and the Jurkat-Vy9Vo2 TCR MOP activation at 5 nM (fold-change to medium) is 5.4.

B8: bsAb062 (bispecific antibody)
heavy: B7 heavy
light: not shown
For the molecule B8, the Jurkat-Vy9Vo2 TCR MOP activation at 0.5 nM (fold-change to medium) is 4.3 and the Jurkat-Vy9Vo2 TCR MOP activation at 5 nM (fold-change to medium) is 5.8.

B9: bsAb031 (bispecific antibody)
heavy: not shown
light: EIVLTQSPATLSLSPGERATLSCRASKGVSTSGYSYLHWYQQKPGQAPRLLIYLASYLESGVPARFSGSGSGTDFTLTISSLEPEDFAVYYCQHSRDLPLTFGGGTKVEIKRTVAAPSVFIFPPSDEQLKSGTASVVCLLNNFYPREAKVQWKVDNALQSGNSQESVTEQDSKDSTYSLSSTLTLSKADYEKHKVYACEVTHQGLSSPVTKSFNRGEC
Take B9: the Jurkat-Vy9Vo2 TCR MOP activation at 0.5 nM (fold-change to medium) turned out to be 1.8 and the Jurkat-Vy9Vo2 TCR MOP activation at 5 nM (fold-change to medium) was 2.2.

B10: bsAb006 (bispecific antibody)
heavy: QVQLVQSGVEVKKPGASVKVSCKASGYTFTNYYMYWVRQAPGQGLEWMGGINPSNGGTNFNEKFKNRVTLTTDSSTTTAYMELKSLQFDDTAVYYCARRDYRFDMGFDYWGQGTTVTVSSASTKGPSVFPLAPSSKSTSGGTAALGCLVKDYFPEPVTVSWNSGALTSGVHTFPAVLQSSGLYSLSSVVTVPSSSLGTQTYICNVNHKPSNTKVDKRVEPKSCDKTHTCPPCPAPEFEGGPSVFLFPPKPKDTLMISRTPEVTCVVVDVSHEDPEVKFNWYVDGVEVHNAKTKPREEQYNSTYRVVSVLTVLHQDWLNGKEYKCKVSNKALPASIEKTISKAKGQPREPQVYTLPPSREEMTKNQVSLTCLVKGFYPSDIAVEWESNGQPENNYKTTPPVLDSDGSFFLYSKLTVDKSRWQQGNVFSCSVMHEALHNHYTQKSLSLSPGGGGGSGGGGSGGGGSGGGGSDIQMTQSPSSLSASVGDRVTITCHASQNINVWLSWYQQKPGKAPKLLIYKASNLHTGVPSRFTGSGSGTDFTFTISSLQPEDIATYYCQQGQTYPYTFGQGTKLEIKGGGGSGGGGSGGGGSGGGGSQVQLVQSGAEVKKPGASVKLSCKASGYIFTRYYMYWVKQRPGQGLEWIGEINPNNGGTKFNEKFKNRATLTVDKSISTAYMELSRLRSDDTAVYYCSREDDYDGTPFAMDYWGQGTLVTVSS
light: B9 light
For B10, the Jurkat-Vy9Vo2 TCR MOP activation at 0.5 nM (fold-change to medium) worked out at 1 and the Jurkat-Vy9Vo2 TCR MOP activation at 5 nM (fold-change to medium) was 1.

B11: bsAb002 (bispecific antibody)
heavy: QVQLVQSGVEVKKPGASVKVSCKASGYTFTNYYMYWVRQAPGQGLEWMGGINPSNGGTNFNEKFKNRVTLTTDSSTTTAYMELKSLQFDDTAVYYCARRDYRFDMGFDYWGQGTTVTVSSASTKGPSVFPLAPSSKSTSGGTAALGCLVKDYFPEPVTVSWNSGALTSGVHTFPAVLQSSGLYSLSSVVTVPSSSLGTQTYICNVNHKPSNTKVDKRVEPKSCDKTHTCPPCPAPEFEGGPSVFLFPPKPKDTLMISRTPEVTCVVVDVSHEDPEVKFNWYVDGVEVHNAKTKPREEQYNSTYRVVSVLTVLHQDWLNGKEYKCKVSNKALPASIEKTISKAKGQPREPQVYTLPPSREEMTKNQVSLTCLVKGFYPSDIAVEWESNGQPENNYKTTPPVLDSDGSFFLYSKLTVDKSRWQQGNVFSCSVMHEALHNHYTQKSLSLSPGGGGGSGGGGSGGGGSGGGGSQVQLVQSGAEVKKPGASVKLSCKASGYIFTRYYMYWVKQRPGQGLEWIGEINPNNGGTKFNEKFKNRATLTVDKSISTAYMELSRLRSDDTAVYYCSREDDYDGTPFAMDYWGQGTLVTVSSGGGGSGGGGSGGGGSGGGGSDIQMTQSPSSLSASVGDRVTITCHASQNINVWLSWYQQKPGKAPKLLIYKASNLHTGVPSRFTGSGSGTDFTFTISSLQPEDIATYYCQQGQTYPYTFGQGTKLEIK
light: B9 light
Molecule B11 displayed a Jurkat-Vy9Vo2 TCR MOP activation at 0.5 nM (fold-change to medium) of 1 and a Jurkat-Vy9Vo2 TCR MOP activation at 5 nM (fold-change to medium) of 1.

B12: bsAb032 (bispecific antibody)
heavy: not shown
light: B9 light
With B12, the Jurkat-Vy9Vo2 TCR MOP activation at 0.5 nM (fold-change to medium) amounted to 0.9 and the Jurkat-Vy9Vo2 TCR MOP activation at 5 nM (fold-change to medium) was 1.

The values are drawn from patent publication US20260265379A1.
